Measurements: patent US20200199244A1 (published 2020)
Several values for one entry are separate records, joined by “and”; a condition that tells them apart may be missing. Equal entries are not always repeated. Where two headings read alike, the source gives them in different places.

Assays:
[1] = target: T1, human CD40 expressed on stably transfected CHO-DG44 cells (human, UniProt P25942 21-277); assay: CHO-CD40 cell RBA, competition with IZ-CD40L
T1 construct: also called CHO-CD40

[2] = target: T2, human CD40 (BMS, CY24FEB06-01) (human, UniProt P25942 21-193); assay: bead RBA, competition with IZ-CD40L
T2 construct: Soluble reagent of the bead and ELISA RBA; It is detected with an anti-human IgG (Fc) mAb, so it may be a CD40-Ig fusion

[3] = target: T3, biotinylated human CD40 (human, UniProt P25942 21-193, limits assumed, biotinylated (sites not given)); assay: SPR, BIAcore 3000 COINJECT over biotinylated human CD40; mixture after first injection; competitor BMS3h-202-11
T3 construct: Biotinylated human CD40 (supplied by BMS), about 600 RU immobilised on a streptavidin BIAcore chip; also called hCD40

[4] = target: T3, biotinylated human CD40; assay: SPR, BIAcore 3000 COINJECT over biotinylated human CD40; mixture after first injection; competitor BMS3h-131-2
Description: (§1) A BIAcore™ 3000 instrument (GE Healthcare) was used to analyze whether CD40-specific dAbs bound the same CD40 epitope. […] A second flow-cell without any ligand immobilized served as a reference flow-cell for inline referencing. An appropriate dilution of each dAb or Fab to be analyzed was prepared in HBS-EP buffer (0.01 M HEPES pH 7.4 with 0.15 M NaCl, 3 mM EDTA and 0.005% v/v Surfactant P20, GE Healthcare). […] Next, a mixture of the same dAb or Fab as above (at the same final concentration) was prepared with a second dAb or Fab to be analyzed for competition. The COINJECT function of the instrument was used to inject 60 μl of the single-inhibitor dilution across the CD40-immobilized and reference flow-cells in series, followed immediately by a 60 μl injection of the two-inhibitor mixture. Inline subtraction of the signal from the reference cell was performed by the instrument's control software. The experiment was performed at 25° C. and a flow rate of 30 μl/min of HBS-EP. […] The maximum RU obtained for the second injection (the mixture of the two inhibitors) was noted and expressed as a percentage of the RU obtained for the same inhibitor when injected alone.

[5] = target: T3, biotinylated human CD40; assay: SPR, BIAcore 3000, dAb injected alone over biotinylated human CD40 on SA chip
Description: as §1

[6] = target: T3, biotinylated human CD40; assay: SPR, BIAcore 3000 COINJECT over biotinylated human CD40; mixture after first injection; competitor BMS3h-56-5
Description: as §1

[7] = target: T3, biotinylated human CD40; assay: SPR, BIAcore 3000 COINJECT over biotinylated human CD40; mixture after first injection; competitor BMS3h-198-1
Description: as §1

[8] = target: T3, biotinylated human CD40; assay: SPR, BIAcore 3000 COINJECT over biotinylated human CD40; mixture after first injection; competitor BMS3h-37-11
Description: as §1

[9] = target: T3, biotinylated human CD40; assay: SPR, BIAcore 3000 COINJECT over biotinylated human CD40; mixture after first injection; competitor BMS3h-56-5; remark: listed apart in the source
Description: as §1

[10] = target: T3, biotinylated human CD40; assay: SPR, BIAcore 3000, dAb injected alone over biotinylated human CD40 on SA chip; remark: listed apart in the source
Description: as §1

[11] = target: T3, biotinylated human CD40; assay: SPR, BIAcore 3000, 5 µM dAb alone over biotinylated human CD40
Description: as §1

[12] = target: T4, human CD40 (W109L, L121P) Fc fusion (human, UniProt P25942 21-193); assay: SPR (ProteOn XPR36), CD40-Fc captured via anti-human IgG(Fc), dAb as analyte, 25 C
T4 construct: Made by site-directed mutagenesis of the wild type construct; no cleavage site is stated; also called hCD40-M4; hCD40 M4 (W109L, L121P); not shown: human IgG1 Fc

[13] = target: T5, wild type cynomolgus monkey CD40 Fc fusion (cynomolgus monkey (Macaca …)); assay: as above
T5 construct: also called wt-cyno-CD40; wt-cCD40; not shown: human IgG1 Fc
T5 chain: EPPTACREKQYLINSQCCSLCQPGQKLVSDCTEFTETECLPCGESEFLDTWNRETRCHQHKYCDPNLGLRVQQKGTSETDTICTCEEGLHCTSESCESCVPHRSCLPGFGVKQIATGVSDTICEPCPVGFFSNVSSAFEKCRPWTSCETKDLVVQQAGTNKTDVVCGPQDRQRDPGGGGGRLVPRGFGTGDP

[14] = target: T6, human CD40 (H76R, W109L, L121P) Fc fusion (human); assay: as above
T6 construct: Made by site-directed mutagenesis of the wild type construct; no cleavage site is stated; also called hCD40-M5; hCD40-M5 (H76R, W109L, L121P); not shown: human IgG1 Fc
T6 chain: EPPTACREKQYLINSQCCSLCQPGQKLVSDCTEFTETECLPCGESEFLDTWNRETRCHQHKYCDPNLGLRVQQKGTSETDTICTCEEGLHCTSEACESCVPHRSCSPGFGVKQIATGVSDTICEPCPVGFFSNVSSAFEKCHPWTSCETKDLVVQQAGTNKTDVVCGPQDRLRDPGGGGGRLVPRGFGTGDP

B1: BMS3h-217 (other)
VL: DIQMTQSPSSLSASVGDRVTITCRASHFIGTLLSWYQQKPGKAPKLLITYGSLLQSGVPSRFSGSGSGTDFTLTISSLQPEDFATYYCGQGVLWPATFGQGTKVEIKR
notes: dAb, single VK
B1 gave an EC50 [1] of 1400 nM and an EC50 [2] of 800 nM.

B2: BMS3h-43 (other)
VH: EVQLLESGGGLVQPGGSLRLSCTASGFTFNMYEMSWVRQAPGKGLEWVSGISRRGFTTYYADSVKGRFTISRDNSKNTLYLQMNSLRAEDTAVYYCAKEPITYAMRYARFDYWGQGTLVTVSS
notes: dAb, single VH
B2 was tested, and the EC50 [1] was 5000 nM and the EC50 [2] was 100 nM and 50 nM.

B3: BMS3h-198 (other)
VH: EVQLLESGGGLVQPGGSLRLSCAASGFTFAGYEMWWVRQAPGKGLERVSAISGSGGSTYYADSVKGRFTISRDDSKNTLYLQMNSLRAEDTAVYYCAKDPYSFDYWGQGTLVTVSS
notes: dAb, single VH
B3 gave an EC50 [1] of 600 nM and an EC50 [2] of 80 nM.

B4: BMS3h-37-11 (other)
VH: EVQLLESGGGLVQPGGSLRLSCAASGFTFEWYEMQWVRKAPGKGLEWVSAISGDGYRTYYADSVKGRFTISRDNSKNTLYLQMNSLRAEDTAVYYCAKELGYFDYRGRGTLVTVSS
notes: Domain antibody (dAb), single human VH domain
For B4, the “Second Injection (% of single dAb RU)” value [3] was 42%, the “Second Injection (% of single dAb RU)” value [4] was -3.7% and the “RU first dAb alone” value [5] was 158 RU. For the same binder, the “Second Injection (% of single dAb RU)” value [6] was -15% and the “Second Injection (% of single dAb RU)” value [7] was 6.4%.

B5: BMS3h-131-2 (other)
VL: DIQMTQSPSSLSASVGDRVTITCRADSSILWALAWYQQKPGKAPKLLIESSSGLQSGVPSRFSGSGSGTDFTLTISSLQPEDFATYYCVQNAVWPGTFGQGTKVEIKR
notes: Domain antibody (dAb), single human V kappa domain
In the case of B5, the “Second Injection (% of single dAb RU)” value [8] is reported as 25%, the “Second Injection (% of single dAb RU)” value [3] is reported as 57% and the “RU first dAb alone” value [5] is reported as 220 RU. For the same binder, the “Second Injection (% of single dAb RU)” value [6] was 17% and the “Second Injection (% of single dAb RU)” value [7] was 41%.

B6: BMS3h-198-1 (other)
VH: EVQLLESGGGLVQPGGSLRLSCAASGSTIAGYEMWWVRQAPGKGLERVSAISGSGGSTYYADSVKGRFTISRDDSKNTLYLQMNSLRAEDTAVYYCARDPYSFDYWGQGTLVTVSS
notes: as for B4
In the case of B6, the “Second Injection (% of single dAb RU)” value [8] is reported as 16%, the “Second Injection (% of single dAb RU)” value [3] is reported as 39% and the “Second Injection (% of single dAb RU)” value [4] is reported as 23.2%. For the same binder, the “RU first dAb alone” value [5] was 176 RU and the “Second Injection (% of single dAb RU)” value [6] was 0.6%.

B7: BMS3h-202-11 (other)
VH: EVQLLESGGGLVQPGGSLRLSCAASGFTFPTAEMLWVRKAPGKGLEWVSSISASGGSTYYADSVKGRFTISRDNSKNTLYLQMNSLRAEDAAVYYCAKEPVSYVATFDYWGQGTLVTVSS
notes: as for B4
For B7, the “Second Injection (% of single dAb RU)” value [8] was 0.3%, the “Second Injection (% of single dAb RU)” value [4] was 10.3% and the “RU first dAb alone” value [5] was 124 RU. For the same binder, the “Second Injection (% of single dAb RU)” value [6] was 7.3% and the “Second Injection (% of single dAb RU)” value [7] was 18%.

B8: BMS3h-38-2 (other)
VH: EVQLLASGGGLVQPGGSLRLSCAASGFTFEEEEMIWVRQAPGKGLEWVSAISGSGGSTYYADSVKGRFTISRDNSKNTLYLQMNSLRAEDTAVYYCGKEPFRYDYWGQGTLVTVSS
notes: as for B4
With B8 the “Second Injection (% of single dAb RU)” value [9] was 4% and the “RU first dAb alone” value [10] was 170 RU.

B9: BMS3h-41-9 (other)
VH: EVQLLEPGGGLVQPGGSLRLSCAASGFTFTEYEMIWVRKAPGKGMEWVSSISGNGANTYYADSVKGRFTISRDNSKNTLYLQMNSLRPEDTAVYYCAKEPLRFDDWGQGTLVTVSS
notes: as for B4
With B9 the “Second Injection (% of single dAb RU)” value [9] was 0% and the “RU first dAb alone” value [10] was 150 RU.

B10: BMS3h-41-13 (other)
VH: EVQLLESAGGLVQPGGSLRLSCAASGFTFAEYEMIWVRQAPGKGLEWVSSISGNGANTYYADSVKGRFTISRDNSKNTLYLQMNSLRAEDTAVYYCAKEPLRFDYWGQGALVTVSS
notes: as for B4
B10 was tested, and the “Single dAb RU” value [11] was 162 RU.

B11: BMS3h-43-1 (other)
VH: EVQLLESGGGLVQPGGSLRLSCTASGFTFNMYEMSWVRQAPGKGLEWVSGISRRGFTTYYADSVKGRFTISRDNSKNTLYLQMNSLRAEDTAVYYCAKEPITYDLRYARFDYSGQGTLVTVSS
notes: as for B4
With B11 the “Second Injection (% of single dAb RU)” value [9] was 22% and the “RU first dAb alone” value [10] was 210 RU.

B12: BMS3h-43-3 (other)
VH: EVQLLESGGGLVQPGGSLRLSCTASGFTFNMYEMSWVRQAPGKGLEWVSGISRRGFTTYYADSVKGRFTISRDNFKNTLYLQMNSLRAEDTAVYYCAKEPITYDMRYARFDYGGQGTLVTVSS
notes: as for B4
With B12 the “Single dAb RU” value [11] was 300 RU.

B13: BMS3h-193-12 (other)
VL: DIQMTQSPSSLSASVGDRVTITCRASQTIERRLNWYQQKPGKAPKLLIYLASRLQSGVPSRFSGSGSGTDFTLTISSLQPEDFATYYCHQYESPPLTFGQGTKVEIKR
notes: as for B5
With B13 the “Single dAb RU” value [11] was 282 RU.

B14: BMS3h-56-5 (other)
VH: EVQLLESGGGLVQPGGSLRLSCAASGFTFRDYEMWWVRQAPGKGLERVSAINPQGTRTYYADSVMGRFTISRDNSKNTLYLQMNSLRAEDTAVYYCAKLPFTFDDWGQGTLVTVSS
notes: Anti-human CD40 domain antibody (dAb), a single human VH domain
B14: no binding (tested: 405 nM (highest dAb concentration)) [12]; no binding (tested: 405 nM (highest dAb concentration)) [13]; no binding (tested: 405 nM (highest dAb concentration)) [14].

B15: BMS3h-56-202 (other)
VH: EVQLLESGGGLVQPGGSLRLSCAASGFTFRDYEMWWVRQAPGKGLERVSAINPQGTRTYYADSVKGRFTISRDNSKNTLYLQMNSLRAEDTAVYYCAKLPTYFSDRGQGTLVTVSS
notes: as for B14
B15: no binding (tested: 405 nM (highest dAb concentration)) [12]; no binding (tested: 405 nM (highest dAb concentration)) [13]; no binding (tested: 405 nM (highest dAb concentration)) [14].

B16: BMS3h-56-206 (other)
VH: EVQLLESGGGLVQPGGSLRLSCAASGFTFRDYEMWWVRQAPGKGLERVSAINPQGTRTYYADSVKGRFTISRDNSKNTLYLQMNSLRAEDTAVYHCAKLPMFFEDWGQGTLVTVSN
notes: as for B14
B16: no binding (tested: 405 nM (highest dAb concentration)) [12]; no binding (tested: 405 nM (highest dAb concentration)) [13]; no binding (tested: 405 nM (highest dAb concentration)) [14].

B17: BMS3h-56-217 (other)
VH: EVQLLESGGGLVQPGGSLRLSCAASGFTFRDYEMWWVRQAPGKGLERVSAINPWGSLTYYADSVKGRFTISRDNSKNTLYLQMNSLRAEDTAVYYCAKLPFTFEDWGQGTLVTVSS
notes: as for B14
B17: no binding (tested: 405 nM (highest dAb concentration)) [12]; no binding (tested: 405 nM (highest dAb concentration)) [13]; no binding (tested: 405 nM (highest dAb concentration)) [14].
